In IntAct's records for PubMed 18571423:

Molecular target: rbbp7_human RBBP7 (UniProt Q16576)
Sequence (Q16576 whole entry): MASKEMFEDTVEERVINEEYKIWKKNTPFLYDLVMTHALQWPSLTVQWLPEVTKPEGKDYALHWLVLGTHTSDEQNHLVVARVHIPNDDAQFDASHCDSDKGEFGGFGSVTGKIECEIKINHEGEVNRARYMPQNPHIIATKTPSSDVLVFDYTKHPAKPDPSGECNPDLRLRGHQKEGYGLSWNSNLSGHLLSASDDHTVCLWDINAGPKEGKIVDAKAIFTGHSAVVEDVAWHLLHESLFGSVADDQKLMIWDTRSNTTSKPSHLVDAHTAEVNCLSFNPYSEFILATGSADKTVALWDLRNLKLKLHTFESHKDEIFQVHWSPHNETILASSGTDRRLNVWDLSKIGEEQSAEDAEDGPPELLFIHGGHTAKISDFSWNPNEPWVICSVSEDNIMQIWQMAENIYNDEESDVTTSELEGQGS

Effect of a mutation on the interaction, disrupting interaction:
Histone H4 (Homo sapiens) (from UniProt P62805) I35T;R36S;L38D
Histone H4 (Homo sapiens) (from UniProt P62805) L38D;R40V;R41N
Histone H4 (Homo sapiens) (from UniProt P62805) R40V;R41N
